From US20080014635A1

Assays:
[1] = target: mutant clone 6 (TNFrED H23P + S46I)-agglutinin fusion displayed on yeast (human); assay: saturation binding of [125I]TNF-α to yeast displaying mutant clone 6, best-fit values box; axis 'Bound' has no unit [B]
[2] = target: mutant clone 11 (TNFrED S76P)-agglutinin fusion displayed on yeast (human); assay: saturation binding of [125I]TNF-α to yeast displaying mutant clone 11, best-fit values box; axis 'Bound' has no unit [C]
[3] = target: mutant clone 6 (TNFrED H23P + S46I)-agglutinin fusion displayed on yeast (human); assay: saturation binding of [125I]TNF-α to yeast displaying mutant clone 6, best-fit values box; the box prints no unit, the concentration axis is TNF-α [nM] [B]
[4] = target: wild-type TNFrED-agglutinin fusion displayed on the surface of S. cerevisiae BJ2168 (human); assay: flow cytometry of yeast, biotinylated hTNF-α detected with FITC-avidin (FL1-H); gate line at FL1-H just below 10^1; vector-only pYES2 yeast in the left panel: Right Half= 1.42% [B]
[5] = target: wild-type TNFrED-agglutinin fusion displayed on the surface of S. cerevisiae BJ2168 (human); assay: flow cytometry of yeast, biotinylated hTNF-α detected with FITC-avidin (FL1-H); vector-only pYES2 yeast in the left panel: Left Half= 98.58% [B]
[6] = target: wild-type TNFrED-agglutinin fusion displayed on the surface of S. cerevisiae BJ2168 (human); assay: saturation binding of [125I]TNF-α to yeast displaying wild-type TNFrED, best-fit values box; axis 'Bound' has no unit [A]
[7] = target: wild-type TNFrED-agglutinin fusion displayed on the surface of S. cerevisiae BJ2168 (human); assay: saturation binding of [125I]TNF-α to yeast displaying wild-type TNFrED, best-fit values box; the box prints no unit, the concentration axis is TNF-α [nM] [A]

Chain of wild-type TNFrED-agglutinin fusion displayed on the surface of S. cerevisiae BJ2168 (human) (P20840 other isoform, or with tags, fused parts or gaps, form in doubt): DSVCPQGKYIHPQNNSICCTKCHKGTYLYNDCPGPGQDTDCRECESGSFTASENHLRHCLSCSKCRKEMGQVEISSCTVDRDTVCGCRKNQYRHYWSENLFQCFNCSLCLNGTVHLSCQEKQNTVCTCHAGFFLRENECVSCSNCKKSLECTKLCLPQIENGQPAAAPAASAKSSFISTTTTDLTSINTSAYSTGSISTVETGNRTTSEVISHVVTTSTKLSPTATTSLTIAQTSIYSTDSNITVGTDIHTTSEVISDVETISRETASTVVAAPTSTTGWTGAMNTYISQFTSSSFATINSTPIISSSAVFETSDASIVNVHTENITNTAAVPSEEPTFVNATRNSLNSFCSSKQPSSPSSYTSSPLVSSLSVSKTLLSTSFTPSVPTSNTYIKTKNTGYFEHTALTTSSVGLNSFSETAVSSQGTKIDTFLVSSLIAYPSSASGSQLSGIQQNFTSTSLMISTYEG
Chain of mutant clone 6 (TNFrED H23P + S46I)-agglutinin fusion displayed on yeast (human) (P20840 other isoform, or with tags, fused parts or gaps H23P S46I H23P S46I, form in doubt): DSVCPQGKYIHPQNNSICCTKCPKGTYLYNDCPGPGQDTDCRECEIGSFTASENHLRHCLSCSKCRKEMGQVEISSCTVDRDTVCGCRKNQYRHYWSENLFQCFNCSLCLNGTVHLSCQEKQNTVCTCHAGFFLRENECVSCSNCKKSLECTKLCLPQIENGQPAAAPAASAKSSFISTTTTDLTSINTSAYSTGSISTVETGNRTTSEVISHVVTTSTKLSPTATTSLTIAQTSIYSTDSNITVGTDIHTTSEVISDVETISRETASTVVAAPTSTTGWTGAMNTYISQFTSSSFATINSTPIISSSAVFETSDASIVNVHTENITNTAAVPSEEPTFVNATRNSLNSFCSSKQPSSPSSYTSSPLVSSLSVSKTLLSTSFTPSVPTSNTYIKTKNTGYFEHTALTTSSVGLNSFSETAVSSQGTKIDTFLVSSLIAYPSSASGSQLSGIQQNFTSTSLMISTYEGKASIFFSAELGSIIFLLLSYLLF
Chain of mutant clone 11 (TNFrED S76P)-agglutinin fusion displayed on yeast (human) (P20840 other isoform, or with tags, fused parts or gaps S76P S76P, form in doubt): as the sequence (P20840 other isoform, or with tags, fused parts or gaps H23P S46I H23P S46I, form in doubt) above, with P23H, I46S, S76P counted along it

human TNF-α (hTNF-α) (from UniProt P01375 77-233) (ligand)
BMAX [1]: 0.334
BMAX [2]: 0.127
Kd [3]: 1.71 nM
Right Half (percent of yeast cells right of the FL1-H gate) [4]: 10.9%
Left Half (percent of yeast cells left of the FL1-H gate) [5]: 89.1%
BMAX [6]: 0.0645
Kd [7]: 2.04 nM
